Laboratory results as given in publication PMC11425205, “MdSINA2‐MdNAC104 Module Regulates Apple Alkaline Resistance by Affecting γ‐Aminobutyric Acid Synthesis and Transport”.

B1: MdGAD1 mutant probe 2 (dsDNA)
DNA 1: CAAACCATTTGCAAAATCCTTAAAGCGATT
DNA 2: AATCGCTTTAAGGATTTTGCAAATGGTTTG
B2: MdGAD1 mutant probe 1 (dsDNA)
DNA 1: GCGCTGCACCTAAAAATTCCATTTCTGGAC
DNA 2: GTCCAGAAATGGAATTTTTAGGTGCAGCGC
B3: MdGAD1 mutant probe 3 (dsDNA)
DNA 1: AAAAAATGGGGCAAAATGGGCTTCACTGTC
DNA 2: GACAGTGAAGCCCATTTTGCCCCATTTTTT
B4: MdGAD1 probe 3 (dsDNA)
DNA 1: AAAAAATGGGGCCACGTGGGCTTCACTGTC
DNA 2: GACAGTGAAGCCCACGTGGCCCCATTTTTT
B5: MdGAD1 probe 1 (dsDNA)
DNA 1: GCGCTGCACCTACACGTTCCATTTCTGGAC
DNA 2: GTCCAGAAATGGAACGTGTAGGTGCAGCGC
B6: MdALMT13 probe 2 (dsDNA)
DNA 1: CTTATTTCAAAAACACGGGTGAACAGTAAA
DNA 2: TTTACTGTTCACCCGTGTTTTTGAAATAAG
B7: MdALMT13 probe 4 (dsDNA)
DNA 1: ATGTATATATAAACACGATATCTCCCTTCC
DNA 2: GGAAGGGAGATATCGTGTTTATATATACAT
B8: MdGAD1 probe 2 (dsDNA)
DNA 1: CAAACCATTTGCCACGTCCTTAAAGCGATT
DNA 2: AATCGCTTTAAGGACGTGGCAAATGGTTTG
B9: MdALMT13 probe 3 (dsDNA)
DNA 1: CTTTTGCATTCAGCACGCACTCGCAAAACC
DNA 2: GGTTTTGCGAGTGCGTGCTGAATGCAAAAG

Biological target: T1, MdNAC104 (Malus domestica (apple)?, UniProt D9ZJ88 1-204)
T1 sequence: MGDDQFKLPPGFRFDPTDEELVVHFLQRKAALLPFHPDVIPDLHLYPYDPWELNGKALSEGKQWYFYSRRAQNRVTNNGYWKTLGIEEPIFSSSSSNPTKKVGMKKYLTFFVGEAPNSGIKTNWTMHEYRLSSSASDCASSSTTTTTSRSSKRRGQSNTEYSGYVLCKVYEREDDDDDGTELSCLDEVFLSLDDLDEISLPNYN
Assay: EMSA; LightShift Chemiluminescent EMSA Kit (Thermo) per manufacturer; buffer, salt, pH and temperature not stated
Conditions: protein: recombinant; tags: His (pET-32a vector); blunt

Binding result, no binding:
B1
B2
B3

Same assay, conditions: protein: recombinant; tags: His (pET-32a vector); label: 5' biotin; blunt

Binding result, binds:
B4
B5
B6
B7
B8
B9
